{"source": "the nanobody polyreactivity screen of Harvey et al. (2022)", "data": [{"test": "yeast display, Sf9 membrane polyspecificity reagent, FACS + sequencing; frameworks hold sequencing errors", "procedure,_shortened": "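In a synthetic yeast display library (Saccharomyces cerevisiae BJ5465), nanobody expression was induced with galactose for 36–48 hours. FACS gates were set low and high (top ~1%) using anti-HA fluorescence for expression and streptavidin fluorescence for binding of the Sf9 membrane reagent. Each polyreactivity label is drawn from the gate of origin.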", "values": [{"sequence": "QVQRVESGGGLVQAGGSLRLSCAASGRIFQIYAMGWYRQAPGKERELVAAIRSGSNTNYADSVKGRFTISRDNAKNTVYLQMNSLKPEDTAVYYCNALYTSLRKDNYWGQGTQVTVST", "polyreactivity (PSR sort gate)": "low polyreactivity"}, {"sequence": "QVQLVESGGGLVQAGGSLRLSCAASGRTFYRYAMGWYRQAPGKERELVATITLRGGRTYYADSVKGRFTISRDTAKNTVYLQMNSLKPEDTAVYYCAKYHWRLSFSRYPYDYWGQGTQVTVSS", "polyreactivity (PSR sort gate)": "high polyreactivity"}, {"sequence": "QVQLQESGADLEQAGGSLRLSFTASGTISDVRVMAWYRQAPGKERELVATISYVTITYYADSVKGRFTISRDSEKHRVSADDEPETGRYRGVLLRYYWGLGTQVTVSS", "polyreactivity (PSR sort gate)": "low polyreactivity"}, {"sequence": "QVQLVESGGGLVQAGGSLRLSCAASGSTFSTNAMGWFIQAPGKARELVAGISRSGGRTYYADSVKGRFTISRDNAKTTVYLQMNSLKPEETAVYYSNAVRRFASPSPHYYWGQGTQVTLSS", "polyreactivity (PSR sort gate)": "high polyreactivity"}, {"sequence": "QVQLVESGGGLVQAGGSLRLSCAASGFTFFYYAMGWYRQAPGKERELVASISWSGGSTYYADSVKGRFTISRDNAKNTVYLQMNSLKPEDTAVYYCAADVPFGGDYWGQGTQVTVSS", "polyreactivity (PSR sort gate)": "low polyreactivity"}, {"sequence": "QVQLVESGGGLVQAGGSLRLSCAASGNTFYRNAMGWYRQAPGKERELVAAITFSTGRTYYADSVKGRFTISRDNAKNTVYLQLNSLKPEDTAVYYCAAFYSGGDYWGQCTQVTVSS", "polyreactivity (PSR sort gate)": "high polyreactivity"}, {"sequence": "QVQLVQSVGGLVQAGGSLRLSCAASGSIFIWNAMGWYRQAPGKVRELVAAISFTGTSTYYADSVTGRFTISRDNAKNTVYLEMNSLKPEDNAVYYCNNDYRGSQYDYWGQGTQVTVSS", "polyreactivity (PSR sort gate)": "low polyreactivity"}, {"sequence": "QVQLVESGGGLVQAGGSLRLSCAASGSTFYGYAMGWYRQAPGKERELVAAITLIGTSTYYADSVKCRFTISRDNAKNTVYLQMNSLKPEDTAVYYCAAEISYGYGYWGQGTQVTVSS", "polyreactivity (PSR sort gate)": "low polyreactivity"}, {"sequence": "QVQLVESGGGLVQAGGSLRLSCAASGSIFVIYALGWYRQAPGKERELVARITKSGGTTYYADSVKGRFTISRDNAKNTVYLQMNSLKPDDTAVYYCNVGYGGSSDGGYDYWGQGTQVTVSS", "polyreactivity (PSR sort gate)": "high polyreactivity"}, {"sequence": "QVQLVESGGGLYQAGGSLRLNCAASGYIFQTYAMVWYRQAPGKEREFVAAITSGAGRTSYADSVKGRFTISRDNAKNTVYLELNSLIPEVTAVYYCNARGRKRSYHRKSSDPYGYWGQGNQVTVSS", "polyreactivity (PSR sort gate)": "high polyreactivity"}, {"sequence": "QVQLVESGGGLVQAGGSLRLSCAASGRIIYKNAMGWYRQAPGKERELVAAITSSGGSTYYADSVKGRFTISRDNAKNTVYLQMNSLKPEDTAVYYCAAYAYGRFGKLNYWGQGTQVTVSS", "polyreactivity (PSR sort gate)": "low polyreactivity"}, {"sequence": "QVQLVESGGGLVQAGGSLRLSCAASGFTFSPNAMGWYRQAPGKERELVAAISKRGASTYYADSVKGRFTISRDNAKNTVYLQMNSLKPEDTAVYYCNVGASARKPYDYWGQGTQVTVSS", "polyreactivity (PSR sort gate)": "high polyreactivity"}, {"sequence": "QVQIVDSGGGLVQAGGSLRISCAASGRIFAGYGKGWYRQAPGKERELVAAISSGGSTYYADSVKGRFTISRDNAKNTVYLQMNSLKPEDTAVYYCATDGQSVPDDYYQNVDYDYWGQGTQVTVSS", "polyreactivity (PSR sort gate)": "low polyreactivity"}, {"sequence": "QVQLVESGGGLVQAGGSLRLRCAASGSTFDGNAMGWYRQAPGKETELVAAITSGGSTNYADSVKGRFTISRDNANNTVYFQMYSLKPEDTAVYYCAAYTVSFSILYDYWGQGTQVTLSS", "polyreactivity (PSR sort gate)": "low polyreactivity"}, {"sequence": "QVQLVESGGGLVQAGGSLRLSCADSVIIFRVYVMGCYRQAPGKERELVDAISTSGGRTSYADSVKGRFTISRDNAKNTVYLQMNSLKPEDTAVYYCAARPLYSYSQWGYGYWGQGTQVTVSS", "polyreactivity (PSR sort gate)": "high polyreactivity"}, {"sequence": "QVQLVESGGGLVQAGGSLRLSCAASGLTFADYAMGWYRQAPVKERELVAAISSSDTSTYYADSVKGRFTISRDNAKNTVYLQMNSLKPEDTAVYYCAADEGYVWPYYGWGFGKYDYWGQGTQVTVSS", "polyreactivity (PSR sort gate)": "low polyreactivity"}, {"sequence": "QVQLVESGGGLVQAGCSLRLSCAAPGFTLKRYAMGWYRQAPGKERELVAAISRTGGSTYHADSVKGRFTITRDNAKNTVYLQMNSLKPEVTAVYYCAAATSPGIYDHWGQGTQLTVSS", "polyreactivity (PSR sort gate)": "high polyreactivity"}, {"sequence": "QGQLVESGGGLVHAGGRLRLSCAASGSTFTTYAMGWYRQAPGTERELVAAISTNGGRTFYADSVKGRFTISRDNAKTTFYLQMNSLKTEDTAVYYCAAQYGLYAPGYYYWGHGTQVTVSS", "polyreactivity (PSR sort gate)": "low polyreactivity"}, {"sequence": "QVQLVESGGGLVQAGGSLRLSCAASGRILYHYAMGWYRQAPGKERELVAAITFSGDTTYYADSVKGRFTISRDNAKNTVYLQMNSLKPEDTAVYYCAADDYYLGYEYWGQGTQVTVSS", "polyreactivity (PSR sort gate)": "high polyreactivity"}, {"sequence": "QVQLVESGGGLVQAGGSLRLSCAASGRTFKTYAMGWYRQAPGKERELVAAISRDGRTYYADSVKGRFTISRDNAKNTVYLQMNSLKPEDTAVYYCNKRSYRKGDYWGQGTQVTVSS", "polyreactivity (PSR sort gate)": "low polyreactivity"}, {"sequence": "QVQLVESGGGLVQAGGSLRLSCAASGRIFHSYTIGWYRPAPGNERELVAAINWSGTRTYYADSVKGRFTISRDNAKNTVYLQMNSLKPEDTAVYYCNRVGVTRSYRYDYWGQGTQVTVSS", "polyreactivity (PSR sort gate)": "high polyreactivity"}, {"sequence": "QVQLVESGGGLVQAGGSLRLSCAASGRIFLTYVMGWYRQAPGKERELVAAITSSGGTTYYADSVKGRFTISRDNAKNTVYLQMKSLKPEDTAVYYCNAGSSYQYGPRYNYWGQGTQVTVSS", "polyreactivity (PSR sort gate)": "low polyreactivity"}, {"sequence": "QVQLVESGGGLVQAGGSLRLSCAASGRTFGYYAMGWYRQAPGKERELVAAISSSGGSTYYADSVKGRFTISRDNAKNTVYLQMNSLKPEDTAVYYCAARFANGGGYWGQGTQVTVSS", "polyreactivity (PSR sort gate)": "high polyreactivity"}, {"sequence": "QVQLVESGGGLVQAGGSLRLSCAASGYTFWANAMGRYRQAPGKERELVAAISWTGGSTYYADSVKGRFTISRDNAKNTVYLQMNSLKPEDTAVYYCNRARINTRVQTDDYWGQGTQVTVSS", "polyreactivity (PSR sort gate)": "high polyreactivity"}, {"sequence": "QVQLVESGGGLVQAGGSLRLSCAASGRIFGSYAMGWYRQAPGKERELVAAINWRGGSTFYADSVKGRFTISRDNAKNTVYLQMNSLKPEDTAVYYCARRGYRQSGDYWGQGTEVTVSS", "polyreactivity (PSR sort gate)": "low polyreactivity"}, {"sequence": "QVQLVESGGGLVQAGGSLRLSCAASGLIFPYYAMGWYRQAPGKERELVATITRSGGNTYYADSVKGRFTISRDNAKNTVYLQMNSLKPEDTAVYYCATRYAGYRSYGYWGQGTQVTVLS", "polyreactivity (PSR sort gate)": "high polyreactivity"}, {"sequence": "QVQLVESGGGLVQAGGSLRLRCAASGRTFARYAMGWYRQAPGKERELVAAISWSGGSTYYADSVKARFTISRDNAKNTVYLQMNSLKPVDTAVYYCAARRPTSPRRYESWGQGTQVTVSS", "polyreactivity (PSR sort gate)": "high polyreactivity"}, {"sequence": "QDQHVESGGGLVQAGGSLRLSCAASGSTFPTNAMGWYRQAPGKERELVADITIRGGGTSYADSVKGRFTISRDNAKNTVYLQMNSLKPEDTEVYYCARSKSTELKRLLYDSWGQGTQVTVSS", "polyreactivity (PSR sort gate)": "low polyreactivity"}, {"sequence": "QVQLVESGGGLVQAGGSLRLSCAASGSTFDANAMGWYRQAPGKERELVATISDGGSTNYADSVKGRFTISRDNAKNTVYVQMNSLKPEDTAVYYCAAVKLFLGLGYDYWGQGTEVTVSS", "polyreactivity (PSR sort gate)": "low polyreactivity"}, {"sequence": "QDQLVESCGGLVQAGGSLRLSCASSGIIFVNYAMGWYRQAPGKERELVAAITTSGGSTYYADSVKGRFTISRDNAKNTVYLQMNCLKPEDTAVYYCAKISSLFKHVVRYDYWGQGTQVTVSS", "polyreactivity (PSR sort gate)": "low polyreactivity"}, {"sequence": "QVQLVESGGGLVQAGGSLRLSCAASGNTFEYYAMGWYRQAPGKERELVAAITSGGSTNYADSVKGRFTISRDNAKNTVYYQMNSLKPEDTAVYYCAADQWGYEYDYWGQGTQVTVSS", "polyreactivity (PSR sort gate)": "low polyreactivity"}, {"sequence": "QVQLVESGGGLVQAGGSLRLSCAASGFIISYYAMGWYRQAPGKERELVATINFSGAGTSYADSVKGRFTISRDNAKNTVYLQMNSLKPEDTAVYYCAARTNSPRGYGSDYWGQGTQVTVSS", "polyreactivity (PSR sort gate)": "high polyreactivity"}]}]}
